# Residue numbers refer to the chain shown, from its start.
# B1: antibody of heavy chain SEQ. ID. No. 7 and light chain SEQ. ID. No. 2 (antibody, human IgG1, V domains shown)
# VH: EVQLVESGGGLVQPGGSLKLSCAASGFIFSNHWMNWVRQAPGKGLEWVAEIRSKSINSATHYAESVKGRFTISRDDSKSIVYLQMNSLKTEDTGVYYCSRNYYGSTYDYWGQGTTVTVSS
# VL: DILLTQSPAILSVSPGERVSFSCRASQFVGSSIHWYQQRTNGSPRLLIKYASESMSGIPSRFSGSGSGTDFTLSINTVESEDIADYYCQQSHSWPFTFGSGTNLEVK
# B2: antibody of heavy chain SEQ. ID. No. 1 and light chain SEQ. ID. No. 4 (antibody, human IgG1, V domains shown)
# VH: EVKLEESGGGLVQPGGSMKLSCVASGFIFSNHWMNWVRQSPEKGLEWVAEIRSKSINSATHYAESVKGRFTISRDDSKSAVYLQMTDLRTEDTGVYYCSRNYYGSTYDYWGQGTTLTVSS
# VL: DILLTQSPAILSLSPGERATLSCRASQFVGSSIHWYQQKTNQSPKLLIKYASESMSGIPSRFSGSGSGTDFTLTINSLESEDAADYYCQQSHSWPFTFGQGTNLEIK
# B3: Composite Human Antibody 7/10 (i.e. containing SEQ. ID. No.s 7 and 10) (antibody, human IgG1, V domains shown)
# VH: B1 VH
# VL: B2 VL with I10T, S80A, N103R
# B4: antibody of heavy chain SEQ. ID. No. 1 and light chain SEQ. ID. No. 9 (antibody, human IgG1, V domains shown)
# VH: B2 VH
# VL: B2 VL with I10T, N103R
# B5: Composite Human Antibody of heavy chain SEQ. ID. No. 5 and light chain SEQ. ID. No. 4 (antibody, human IgG1, V domains shown)
# VH: B1 VH with A23V, S87D
# VL: B2 VL
# B6: antibody of heavy chain SEQ. ID. No. 6 and light chain SEQ. ID. No. 2 (antibody, human IgG1, V domains shown)
# VH: B1 VH with A23V
# VL: B1 VL
# B7: antibody of heavy chain SEQ. ID. No. 1 and light chain SEQ. ID. No. 10 (antibody, human IgG1, V domains shown)
# VH: B2 VH
# VL: B2 VL with I10T, S80A, N103R
# B8: Composite Human Antibody of heavy chain SEQ. ID. No. 6 and light chain SEQ. ID. No. 4 (antibody, human IgG1, V domains shown)
# VH: B1 VH with A23V
# VL: B2 VL
# B9: Composite Human Antibody of heavy chain SEQ. ID. No. 3 and light chain SEQ. ID. No. 9 (antibody, human IgG1, V domains shown)
# VH: B1 VH with A23V, N86T, S87D, K89R
# VL: B2 VL with I10T, N103R
# B10: Composite Human Antibody 5/10 (antibody, human IgG1, V domains shown)
# VH: B1 VH with A23V, S87D
# VL: B2 VL with I10T, S80A, N103R
# B11: Composite Human Antibody of heavy chain SEQ. ID. No. 6 and light chain SEQ. ID. No. 9 (antibody, human IgG1, V domains shown)
# VH: B1 VH with A23V
# VL: B2 VL with I10T, N103R
# B12: Composite Human Antibody of heavy chain SEQ. ID. No. 6 and light chain SEQ. ID. No. 10 (antibody, human IgG1, V domains shown)
# VH: B1 VH with A23V
# VL: B2 VL with I10T, S80A, N103R
# B13: primary Composite Human Antibody (heavy chain SEQ. ID. No. 3 and light chain SEQ. ID. No. 4) (antibody, human IgG1, V domains shown)
# VH: B1 VH with A23V, N86T, S87D, K89R
# VL: B2 VL
# B14: Composite Human Antibody of heavy chain SEQ. ID. No. 5 and light chain SEQ. ID. No. 9 (antibody, human IgG1, V domains shown)
# VH: B1 VH with A23V, S87D
# VL: B2 VL with I10T, N103R
# B15: Composite Human Antibody of heavy chain SEQ. ID. No. 6 and light chain SEQ. ID. No. 11 (antibody, human IgG1, V domains shown)
# VH: B1 VH with A23V
# VL: B2 VL with I10T, N41D, S80A, N103R
# B16: Composite Human Antibody 7/9 (antibody, human IgG1, V domains shown)
# VH: B1 VH
# VL: B2 VL with I10T, N103R
# B17: antibody of heavy chain SEQ. ID. No. 3 and light chain SEQ. ID. No. 2 (antibody, human IgG1, V domains shown)
# VH: B1 VH with A23V, N86T, S87D, K89R
# VL: B1 VL
# B18: antibody of heavy chain SEQ. ID. No. 5 and light chain SEQ. ID. No. 2 (antibody, human IgG1, V domains shown)
# VH: B1 VH with A23V, S87D
# VL: B1 VL
# B19: Composite Human Antibody of heavy chain SEQ. ID. No. 3 and light chain SEQ. ID. No. 10 (antibody, human IgG1, V domains shown)
# VH: B1 VH with A23V, N86T, S87D, K89R
# VL: B2 VL with I10T, S80A, N103R
# B20: Composite Human Antibody of heavy chain SEQ. ID. No. 5 and light chain SEQ. ID. No. 11 (antibody, human IgG1, V domains shown)
# VH: B1 VH with A23V, S87D
# VL: B2 VL with I10T, N41D, S80A, N103R
# B21: antibody of heavy chain SEQ. ID. No. 1 and light chain SEQ. ID. No. 11 (antibody, human IgG1, V domains shown)
# VH: B2 VH
# VL: B2 VL with I10T, N41D, S80A, N103R
# B22: Composite Human Antibody of heavy chain SEQ. ID. No. 7 and light chain SEQ. ID. No. 11 (antibody, human IgG1, V domains shown)
# VH: B1 VH
# VL: B2 VL with I10T, N41D, S80A, N103R
# B23: Composite Human Antibody 7/4 (antibody, human IgG1, V domains shown)
# VH: B1 VH
# VL: B2 VL
# B24: Composite Human Antibody of heavy chain SEQ. ID. No. 3 and light chain SEQ. ID. No. 11 (antibody, human IgG1, V domains shown)
# VH: B1 VH with A23V, N86T, S87D, K89R
# VL: B2 VL with I10T, N41D, S80A, N103R
# Target: human TNFα (human, UniProt P01375 77-233)
# Sequence (P01375 77-233 limits assumed): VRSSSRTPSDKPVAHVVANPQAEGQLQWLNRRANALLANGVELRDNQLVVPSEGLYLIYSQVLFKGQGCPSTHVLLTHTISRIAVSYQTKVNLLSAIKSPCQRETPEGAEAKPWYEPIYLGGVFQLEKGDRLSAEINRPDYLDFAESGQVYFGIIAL
# Test: cell-based or functional assay
row,"Ratio of Activities compared to Chimeric Antibody (fold difference, WEHI-164 protection assay at 25 ng/ml) [fold]",Binder
1,1.02,B1
2,1.51,B2
3,0.98,B3
4,1.28,B4
5,1.28,B5
6,1.2,B6
7,1.31,B7
8,1.38,B8
9,2.14,B9
10,1.17,B10
11,1.77,B11
12,1.63,B12
13,2.28,B13
14,1.32,B14
15,134,B15
16,0.95,B16
17,1.38,B17
18,1.24,B18
19,2.51,B19
20,196,B20
21,16.9,B21
22,106,B22
23,1.05,B23
24,15.2,B24

# Source: patent US20080206239A1 (ANTITOPE, published 2008)
